B1: anti-LukE mAb SM1B332 (antibody, V domains shown)
VH: QVQLKESGPGLVAPSQSLSITCTVSGLSLTSYGLSWVRQPPGKGLEWLGVIWGDGSTNYHSALISRLSISKDNSKSQVFLKLNSLQSDDTATYYCATRGDYGSYAMDYWGQGTSVTVSS
VL: QIVLTQSPAIMSASPGEKVTLTCSASSSVSSSYLFWYQQKPGSSPKLWIYSTSNLASGVPVRFSGSGFGTSYSLTISRMEAEDAASYFCHQWSSYPPTFGAGTKLELKR
B2: anti-LukE mAb SM1B507 (antibody)
heavy: EVQLQQSGAELVKPGASVKMSCKASGYTFTDYYMDWVKQSHGKSFEWIGHVNPYNGDTRYNQKFKGKATLTVDKSSTTAYMELNSLTSEDSAVYYCARGNFFDYWGQGTTLSVSSAKTTPPSVYPLAPGSAAQTNSMVTLGCLVKGYFPEPVTVTWNSGSLSSGVHTFPAVLESDLYTLSSSVTVPSSPRPSETVTCNVAHPASSTKVDKKIVPRDCGCKPCICTVPEVSSVFIFPPKPKDVLTITLTPKVTCVVVDISKDDPEVQFSWFVDDVEVHTAQTQPREEQFNSTFRSVSELPIMHQDWLNGKEFKCRVNSAAFPAPIEKTISKTKGRPKAPQVYTIPPPKEQMAKDKVSLTCMITDFFPEDITVEWQWNGQPAENYKNTQPIMNTNGSYFVYSKLNVQKSNWEAGNTFTCSVLHEGLHNHHTEKSLSHSPGK
light: DIVMTQSPAIMSASPGEKVTIPCSASSSVSYMHWFQQKPGTSPKLWIYSTSNLASGVPGRFSGSGSGTSYSLTISRMEAEDAATYYCQQRSNYPLTFGAGTKLELKRADAAPTVSIFPPSSEQLTSGGASVVCFLNNFYPKDINVKWKIDGSERQNGVLNSWTDQDSKDSTYSMSSTLTLTKDEYERHNSYTCEATHKTSTSPIVKSFNRNEC
B3: anti-LukAB mAb SM1B245 (antibody, V domains shown)
VH: QVQLQQSGAELAKPGASVKMSCKSSGYTFSTYWMHWVKQRPGQGLEWIGYINPNTGYTEYNQKFKDTATLTADKSSSTAYMQLSSLTSEDSAVYYCARGGSKAFPYYAMDYWGQGTSVTVSS
VL: DIVLTQSPASLAVSLGQRATMSCRASESVDGYGNSFLHWYQQKPGQPPKLLIYRASNLESGIPARFSGTGSRTDFTLTITPVEADDVATYYCQQSNGDPFTFGSGTKLEIKR
B4: anti-LukAB mAb SM1B111 (antibody, V domains shown)
VH: EVQLQQSGAELVKPGASVKISCKASGYAFSSSWMNWLKQRPGKGLEWIGRIYPGDGDTNYNGKFKGKATLTADKSSSTAYMQLSSLTSEDSAVYFCARYGYDYDGEYYYAMDYWGQGTSVTVSS
VL: DIVMTQSPTTMAASPGERITITCSAHSNLISNYLHWYQQKPGFSPKLLIYRTSNLASGVPARFSGSGSGTSYSLTIGTMEAEDVATYFCQQGSSIPFTFGSGTKLEIKR
B5: anti-LukE mAb SM1B318 (antibody, V domains shown)
VH: QVQLQQSGAELMNPGASVKISCKSTGYKFSSYWIEWVKQRPGHGLEWMGEILPGSGSTNHNEKFKGKAIFTADASSNTAYMELSSLTSEDSAVYYCARTISTATDWFAYWGQGTLVTVSA
VL: DVLMTQTPLSLPVSLGDQASISCRSSQTIVYSDGNTYLEWYLQKPGQSPKLLIYKVSNRFSGVPDRVSGSGSGTDFTLKISRVEAEDLGVYYCFQGSHVPYTFGGGTKLEIKR
B6: antibody SM1B225 (antibody, V domains shown)
VH: EVQLQQSGGGLVKPGGSLKLSCAASGFTFSSYAMSWVRQTPEKRLEWVATITGGGTYTYYLDSVKGRFTISRDNAKTSLYLQMSSLRSEDTAMYYCARHRDGNYGCFDVWGAGTTVTVSS
VL: DIVLTQSPAIMSASLGERVTMTCTASSSVSSSYLHWYQQKPGSSPKLWVYSTSNLASGVPARFSGSGSGSSYSLTISSMEPEDTATYYCHQYHRSPQTFGGGTKLEIKR

Experiments:
[1] = target: T1, recombinant derivative of the LukE protein (SEQ ID NO: 826) with amino-terminal poly-histidine affinity tag (UniProt Q2FXB0 24-306); experiment: BLI; Step E (after SM1B332), left panel
T1 chain: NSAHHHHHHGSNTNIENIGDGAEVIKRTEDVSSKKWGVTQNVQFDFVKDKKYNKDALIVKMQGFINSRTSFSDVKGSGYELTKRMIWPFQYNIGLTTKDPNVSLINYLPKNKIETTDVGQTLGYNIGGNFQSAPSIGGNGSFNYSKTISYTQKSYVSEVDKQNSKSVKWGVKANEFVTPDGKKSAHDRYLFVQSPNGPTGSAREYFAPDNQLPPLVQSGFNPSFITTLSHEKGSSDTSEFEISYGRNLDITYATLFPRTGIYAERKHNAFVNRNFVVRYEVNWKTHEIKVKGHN

[2] = target: T1, recombinant derivative of the LukE …; experiment: BLI; Step C (first mAb), right panel
[3] = target: T1, recombinant derivative of the LukE …; experiment: BLI; Step C (first mAb), left panel
[4] = target: T1, recombinant derivative of the LukE …; experiment: BLI; Step E (after SM1B332), right panel
[5] = target: T2, recombinant toxoid variant of the LukAB protein (LukA E323A) with poly-histidine and streptavidin binding … (UniProt Q2FFA2 31-351; P21224 30-338); experiment: BLI; Step E (after SM1B245)
T2 chain 1: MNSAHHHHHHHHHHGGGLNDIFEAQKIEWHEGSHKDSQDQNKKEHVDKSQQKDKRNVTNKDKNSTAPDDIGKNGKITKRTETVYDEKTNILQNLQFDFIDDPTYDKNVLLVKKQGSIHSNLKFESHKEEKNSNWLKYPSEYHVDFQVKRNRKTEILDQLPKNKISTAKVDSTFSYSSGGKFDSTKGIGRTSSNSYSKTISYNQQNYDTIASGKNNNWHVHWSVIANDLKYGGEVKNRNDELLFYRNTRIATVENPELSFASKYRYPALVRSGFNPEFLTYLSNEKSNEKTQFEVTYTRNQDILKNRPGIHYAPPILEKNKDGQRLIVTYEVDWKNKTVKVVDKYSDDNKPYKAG
T2 chain 2: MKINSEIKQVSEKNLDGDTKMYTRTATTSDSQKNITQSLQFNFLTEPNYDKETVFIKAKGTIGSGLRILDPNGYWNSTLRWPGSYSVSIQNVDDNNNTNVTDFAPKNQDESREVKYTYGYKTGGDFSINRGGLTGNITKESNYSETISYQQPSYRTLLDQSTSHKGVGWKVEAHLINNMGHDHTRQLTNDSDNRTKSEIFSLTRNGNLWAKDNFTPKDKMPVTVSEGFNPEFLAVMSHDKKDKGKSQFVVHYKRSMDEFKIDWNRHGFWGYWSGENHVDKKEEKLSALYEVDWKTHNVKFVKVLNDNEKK

[6] = target: T2, recombinant toxoid variant of the LukAB …; experiment: BLI; Step C (first mAb)
[7] = target: T2, recombinant toxoid variant of the LukAB …; experiment: BLI; Step E (after SM1B249)
[8] = target: T3, recombinant derivative of the LukD protein (SEQ ID NO: 824) with amino-terminal polyhistidine affinity tag, … (UniProt Q2FXB1 27-327, chemically biotinylated in vitro (sites not given)); experiment: BLI; Step E (after SM1B221)
T3 chain: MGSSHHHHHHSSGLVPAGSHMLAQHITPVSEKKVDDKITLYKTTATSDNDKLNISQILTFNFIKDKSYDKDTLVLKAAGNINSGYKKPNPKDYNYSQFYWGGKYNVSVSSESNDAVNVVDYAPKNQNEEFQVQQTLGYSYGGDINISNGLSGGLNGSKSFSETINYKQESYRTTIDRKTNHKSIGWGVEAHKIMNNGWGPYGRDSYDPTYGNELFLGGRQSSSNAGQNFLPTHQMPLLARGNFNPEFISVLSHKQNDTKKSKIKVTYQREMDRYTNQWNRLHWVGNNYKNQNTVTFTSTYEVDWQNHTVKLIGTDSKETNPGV

Binder	Kd [1]	Kd [4]	Kd [5]	further results
B1	4.9 nM	4.9 nM		Kd [2]: 1.47 nM; Kd [3]: 1.38 nM
B2		3.52 nM		
B3			11.5 nM	Kd [6]: 0.656 nM; Kd [7]: 1.31 nM
B4			4.53 nM	
B5	5.04 nM			
B6				Kd [8]: 4.67 nM
